What was measured:
[1] = target: HA:AvrBsT (Xanthomonas euvesicatoria, UniProt A0ABS8LK00); type: biochemical
[2] = target: T1, AtTIPSY1 (Arabidopsis thaliana, UniProt Q8GYK2); assay: colorimetric p-nitrophenol release at […] nm; type: biochemical; conditions: 20 mM HEPES, 150 mM NaCl, pH 7.52-7.55, 0.01% Triton X-100, room temperature
T1 sequence (Q8GYK2 1-262): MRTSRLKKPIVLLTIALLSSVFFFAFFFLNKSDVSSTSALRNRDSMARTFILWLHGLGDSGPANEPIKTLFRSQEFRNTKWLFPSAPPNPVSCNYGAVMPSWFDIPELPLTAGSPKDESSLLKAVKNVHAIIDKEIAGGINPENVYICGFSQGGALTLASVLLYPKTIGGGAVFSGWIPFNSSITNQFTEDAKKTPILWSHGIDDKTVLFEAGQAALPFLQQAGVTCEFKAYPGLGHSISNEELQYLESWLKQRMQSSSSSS

[3] = test system: CCCC(=O)Oc1ccc([N+](=O)[O-])cc1; assay: purified protein; conditions: 20 mM HEPES, 150 mM NaCl, pH 7.52-7.55, 0.01% Triton X-100, room temperature; pH 7.0
[4] = test system: CC(=O)Oc1ccc([N+](=O)[O-])cc1; assay: purified protein; conditions: 20 mM HEPES, 150 mM NaCl, pH 7.52-7.55, 0.01% Triton X-100, room temperature; pH 7.0
[5] = test system: CCCCC(=O)Oc1ccc([N+](=O)[O-])cc1; assay: purified protein; conditions: 20 mM HEPES, 150 mM NaCl, pH 7.52-7.55, 0.01% Triton X-100, room temperature; pH 7.0
[6] = substrate: CC(=O)Oc1ccc([N+](=O)[O-])cc1; assay: purified protein; conditions: 20 mM HEPES, 150 mM NaCl, pH 7.52-7.55, 0.01% Triton X-100, room temperature; pH 7.0; remark: listed apart in the source
[7] = substrate: CCCCC(=O)Oc1ccc([N+](=O)[O-])cc1; assay: purified protein; conditions: 20 mM HEPES, 150 mM NaCl, pH 7.52-7.55, 0.01% Triton X-100, room temperature; pH 7.0; remark: listed apart in the source
[8] = substrate: CCCC(=O)Oc1ccc([N+](=O)[O-])cc1; assay: purified protein; conditions: 20 mM HEPES, 150 mM NaCl, pH 7.52-7.55, 0.01% Triton X-100, room temperature; pH 7.0; remark: listed apart in the source

## CC(=O)SCCNC(=O)CCNC(=O)[C@H](O)C(C)(C)COP(=O)(O)OP(=O)(O)OC[C@H]1O[C@@H](n2cnc3c(N)ncnc32)[C@H](O)[C@@H]1OP(=O)(O)O [[Acetyl-1-^14C]-Acetyl Coenzyme A]
[1]
  autoradiography of auto-acetylation on anti-HA beads: led to auto-acetylation of the wild type protein, but not the enzymatically inactive mutant

## CCCCCC(=O)Oc1ccc([N+](=O)[O-])cc1 [pNP hexanoate]
[2]
  Michaelis-Menten parameters: allowed the protein to hydrolyze para-nitrophenyl hexanoate, like AtTIPSY1 is able to

## AtSOBER1 (Arabidopsis thaliana; F65L)
[3]
  Km: 4.80 ± 0.23 × 10^-5 M
  kcat: 1.10 ± 0.18 × 10^1 s-1
[4]
  Km: 3.12 ± 0.44 × 10^-4 M
  kcat: 1.88 ± 0.23 × 10^2 s-1

## AtSOBER1 (Arabidopsis thaliana; L63A)
[5]
  Km: 4 µM
[3]
  Km: 30 µM
[4]
  Km: 6 mM

## AtTIPSY1 (Arabidopsis thaliana; L110F)
[4]
  Km: 1.75 ± 0.33 × 10^-3 M
  kcat: 4.82 ± 0.32 × 10^2 s-1

B1: AtSOBER1 (Arabidopsis thaliana) (protein)
chain: MARTFILWLHGLGDSGPANEPIQTQFKSSELSNASWLFPSAPFNPVTCNNGAVMRSWFDVPELPFKVGSPIDESSVLEAVKNVHAIIDQEIAEGTNPENVFICGLSQGGALTLASVLLYPKTLGGGAVLSGWVPFTSSIISQFPEEAKKTPILWSHGTDDRMVLFEAGQAALPFLKEAGVTCEFKAYPGLGHSISNKELKYIESWIKRRLKGSSSTCLQLNCLKEMFH
[6]
  Km: 158 µM
[7]
  Km: 327 µM
[8]
  Km: 227 µM

B2: AtTIPSY1 (Arabidopsis thaliana) (protein)
chain: T1 sequence (Q8GYK2 1-262)
[6]
  Km: 1.75 ± 0.18 × 10^-3 M
[7]
  Km: 3.07 ± 0.29 × 10^-4 M
  kcat: 6.46 ± 0.39 × 10^1 s-1
[8]
  Km: 5.03 ± 0.41 × 10^-4 M
